The record followed here is patent publication US20030044958A1 (ICOS, published 2003).

Some results are limits rather than exact numbers.

In experiment [1] the target is ICAM-1/Fc (UniProt P05362). Description: cell-based or functional assay.
Experiment [2] addresses VCAM-1/Fc (UniProt P19320). Description: cell-based or functional assay.
The target in experiment [3] is T1, His3E9-tagged β2 integrin cytoplasmic tail protein (UniProt P05107 724-769, not fully specified).
T1 construct: domain: cytoplasmic tail; Expressed in E. coli (pET15b) or Saccharomyces; immobilized on Scintistrip plates; also called β2 C-tail; β2 integrin C-tail; not shown: His3E9 tag
T1 chain (looked up): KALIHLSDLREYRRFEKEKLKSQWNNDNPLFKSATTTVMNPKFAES
Nature of the experiment: competition binding assay, competitor at 0.001 to 4 µM against iodinated IRP-1 on immobilized β2 C-tail. On the procedure: (§1) The integrin C-tails were immobilized onto 96-well microtiter Scintistrip™ (Wallac) plates at concentrations between […] in volumes of 50-100 μl bicarbonate, pH 9.6, per well and were incubated at 4° C. overnight. Plates were dried and blocked in 350 μl/well sterile-filtered 1-2% Bovine Serum Albumin (BSA) dissolved in binding assay buffer and were incubated at room temperature for 1-2 hours. The wells were washed 3 times in binding assay buffer and dried just prior to addition of IRPs.
The binding assay format was either a competition/inhibition binding assay or a saturation binding assay. In the competition binding assay, radiolabeled IRPs were diluted to 25-100 nM in binding assay buffer with one potential modulator of binding (unlabelled IRPs, soluble C-tails or non-specific control polypeptides such as BSA). The assay was initiated with addition of 100 μl labeled IRPs/potential modulator solution to the blocked Scintistrip® wells (50,000-200,000 cpm/well), then incubated one hour at room temperature (22-24° C.) and stopped by rapidly washing in binding assay buffer three to five times. The saturation binding assays were performed similarly, except that a constant 1:20 ratio of radiolabeled:unlabeled IRPs were tested over a total concentration range of 0.01-30 μM. The plates were dried and scintillation was measured on a Wallac Model 1450 liquid scintillation counter after the detectors were normalized. Interwell crosstalk was corrected for with a test Scintistrip™ plate, containing in the G11, 100 μl of 25-100 nM radiolabeled IRP captured by anti-IRP monoclonal antibody 200A coated in the well at 20 μg/ml in bicarbonate buffer. The incubation times and conditions for the test plate were identical to the binding assay above.

Experiment [4] concerns the target T2, Bovine Serum Albumin (BSA) (bovine, UniProt P02769 25-607).
T2 construct: also called control peptide
Description: radiolabelled IRP-1 on BSA-blocked Scintistrip wells. Here is the method: as §1
The binding assay format was either a competition/inhibition binding assay or a saturation binding assay. In the competition binding assay, radiolabeled IRPs were diluted to 25-100 nM in binding assay buffer with one potential modulator of binding (unlabelled IRPs, soluble C-tails or non-specific control polypeptides such as BSA). […] The plates were dried and scintillation was measured on a Wallac Model 1450 liquid scintillation counter after the detectors were normalized. […]
Binding was measured as counts of radiolabeled IRPs found in C-tail-coated wells above counts found in BSA-coated wells. Specific binding was assessed as counts found in C-tail-coated wells which were reduced with added unlabelled IRPs or soluble C-tails.

Sequence of VCAM-1/Fc (P19320 25-698 limits assumed): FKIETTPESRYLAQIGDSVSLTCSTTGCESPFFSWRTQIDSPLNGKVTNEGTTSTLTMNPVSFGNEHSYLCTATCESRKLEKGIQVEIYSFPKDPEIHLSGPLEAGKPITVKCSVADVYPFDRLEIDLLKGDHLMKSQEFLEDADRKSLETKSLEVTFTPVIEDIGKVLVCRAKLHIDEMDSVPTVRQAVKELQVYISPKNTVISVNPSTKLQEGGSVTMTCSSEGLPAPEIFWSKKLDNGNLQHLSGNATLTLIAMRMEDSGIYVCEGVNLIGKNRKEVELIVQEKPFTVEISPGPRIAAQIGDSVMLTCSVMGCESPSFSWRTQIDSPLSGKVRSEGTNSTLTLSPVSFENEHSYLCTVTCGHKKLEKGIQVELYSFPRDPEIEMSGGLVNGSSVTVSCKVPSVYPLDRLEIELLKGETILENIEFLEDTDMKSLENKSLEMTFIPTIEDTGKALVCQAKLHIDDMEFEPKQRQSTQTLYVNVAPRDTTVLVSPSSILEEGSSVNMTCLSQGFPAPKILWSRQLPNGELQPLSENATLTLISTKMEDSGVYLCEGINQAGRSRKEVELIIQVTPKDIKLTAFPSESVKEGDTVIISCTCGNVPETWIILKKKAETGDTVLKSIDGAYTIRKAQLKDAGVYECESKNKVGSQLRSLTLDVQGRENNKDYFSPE
Sequence of ICAM-1/Fc (P05362 28-480 limits assumed): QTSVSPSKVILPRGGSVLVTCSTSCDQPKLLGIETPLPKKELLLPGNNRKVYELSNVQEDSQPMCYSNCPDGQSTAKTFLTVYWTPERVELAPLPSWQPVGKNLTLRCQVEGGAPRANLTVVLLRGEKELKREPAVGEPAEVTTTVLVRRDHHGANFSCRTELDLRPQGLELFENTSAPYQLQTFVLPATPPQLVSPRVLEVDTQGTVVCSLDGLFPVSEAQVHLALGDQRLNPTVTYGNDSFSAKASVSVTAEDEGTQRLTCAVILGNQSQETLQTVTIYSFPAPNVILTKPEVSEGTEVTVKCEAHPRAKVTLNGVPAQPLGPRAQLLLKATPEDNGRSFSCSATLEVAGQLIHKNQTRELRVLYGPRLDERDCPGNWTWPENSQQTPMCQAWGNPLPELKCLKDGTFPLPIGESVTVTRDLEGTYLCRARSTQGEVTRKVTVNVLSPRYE
T2 sequence (P02769 25-607 limits assumed): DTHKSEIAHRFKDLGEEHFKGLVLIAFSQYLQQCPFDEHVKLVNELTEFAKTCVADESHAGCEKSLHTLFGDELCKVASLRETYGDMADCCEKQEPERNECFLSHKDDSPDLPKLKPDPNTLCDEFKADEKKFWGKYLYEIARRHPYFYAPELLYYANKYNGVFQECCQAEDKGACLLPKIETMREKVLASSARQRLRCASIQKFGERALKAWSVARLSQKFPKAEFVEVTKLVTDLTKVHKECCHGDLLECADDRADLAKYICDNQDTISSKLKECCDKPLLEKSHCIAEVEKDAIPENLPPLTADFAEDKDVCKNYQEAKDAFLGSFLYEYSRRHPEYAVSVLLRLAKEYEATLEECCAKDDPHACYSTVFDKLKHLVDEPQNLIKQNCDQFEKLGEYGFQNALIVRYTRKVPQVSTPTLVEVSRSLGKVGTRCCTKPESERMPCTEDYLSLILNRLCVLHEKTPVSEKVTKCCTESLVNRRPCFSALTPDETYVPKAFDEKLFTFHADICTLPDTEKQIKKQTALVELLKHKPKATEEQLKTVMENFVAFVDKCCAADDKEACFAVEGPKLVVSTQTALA

Turning to “LFA-1 (CD11a/CD18) on JY, JY-8 or transfected COS cells (from UniProt P20701 26-1170; P05107 23-769) (receptor)”, in experiment [1], the decrease in ICAM-1 adhesion of COS cells co-transfected with CD11a/CD18 and 3′HA B2-1, 5′HA B2-1, B2-1 PH or IRP-1 PH, 72 hours post-transfection, against vector control was found to be 50%; the decrease in static adhesion to ICAM-1 of JY-8 transfectants overexpressing IRP-1 against GFP control (basal and IL-8 stimulated) lay in the range of 40 to 50%; the highest flow rate at which ICAM-1 binding of JYIRP-2 cells was detected after static binding is < 7.5 dynes/cm^2; the static adhesion of JY-8 cells expressing only GFP (control) to immobilized ICAM-1, IL-8 against basal level was in the range of 3 to 4 fold. In experiment [1], the static adhesion of JY-8 cells to ICAM-1, PMA against basal level is > 4 fold and the static adhesion to ICAM-1 (basal or IL-8 induced) of JY-8 transfectants overexpressing IRP-2 against GFP transfectants was 20%.
For “integrin α4β7 on JY or JY-8 cells (from UniProt P13612 34-1032; P26010 20-798) (receptor)”, in experiment [2], the IL-8 stimulated adhesion to VCAM-1 of JY-8 transfectants overexpressing B2-1 is 50%; the static adhesion of JY-8 cells expressing only GFP (control) to immobilized VCAM-1, IL-8 against basal level is 2 fold; the static adhesion of JY-8 cells to VCAM-1, PMA against basal level was > 4 fold; the static adhesion to VCAM-1 (IL-8 induced) of JY-8 transfectants overexpressing IRP-2 against GFP transfectants is 20%. The molecule further yielded a static adhesion to VCAM-1 of JY-8 transfectants overexpressing IRP-1, IL-8 stimulated in experiment [2] of 40%.

B1: His-tagged IRP-1 (HisIRP-1), expressed in E. coli (other)
chain: MEDGVYEPPDLTPEERMELENIRRRKQELLVEIQRLREELSEAMSEVEGLEANEGSKTLQRNRKMAMGRKKFNMDPKKGIQFLVENELLQNTPEEIARFLYKGEGLNKTAIGDYLGEREELNLAVLHAFVDLHEFTDLNLVQALRQFLWSFRLPGEAQKIDRMMEAFAQRYCLCNPGVFQSTDTCYVLSFAVIMLNTSLHNPNVRDKPGLERFVAMNRGINEGGDLPEELLRNLYDSIRNEPFKIPEDDGNDLTHTFFNPDREGWLLKLGGRVKTWKRRWFILTDNCLYYFEYTTDKEPRGIIPLENLSIREVDDPRKPNCFELYIPNNKGQLIKACKTEADGRVVEGNHMVYRISAPTQEEKDEWIKSIQAAVSVDPFYEMLAARKKRISVKKKQEQP
notes: also called unlabelled IRP-1; clone S3 protein; not shown: N-terminal histidine tag encoded by pET15b
B1: the “percent decrease of iodinated IRP-1 binding” value (shortened to “percent decrease”) in experiment [3] was ~75%.

B2: iodinated IRP-1 (125I-labelled His-tagged IRP-1) (other)
chain: MEDGVYEPPDLTPEERMELENIRRRKQELLVEIQRLREELSEAMSEVEGLEANEGSKTLQRNRKMAMGRKKFNMDPKKGIQFLVENELLQNTPEEIARFLYKGEGLNKTAIGDYLGEREELNLAVLHAFVDLHEFTDLNLVQALRQFLWSFRLPGEAQKIDRMMEAFAQRYCLCNPGVFQSTDTCYVLSFAVIMLNTSLHNPNVRDKPGLERFVAMNRGINEGGDLPEELLRNLYDSIRNEPFKIPEDDGNDLTHTFFNPDREGWLLKLGGRVKTWKRRWFILTDNCLYYFEYTTDKEPRGIIPLENLSIREVDDPRKPNCFELYIPNNKGQLIKACKTEADGRVVEGNHMVYRISAPTQEEKDEWIKSIQAAVSVDPFYEMLAARKKRISVKKKQEQP
modifications: radiolabeled with 125I (Iodobead or lactoperoxidase/hydrogen peroxide method); positions not given
notes: also called radiolabeled IRP-1; not shown: His tag encoded by pET15b (non-kemptide-tagged)
Regarding B2, the binding result in experiment [4] was “no binding”.

B3: His-tagged B2-1 (HisB2-1), expressed in E. coli (other, human, UniProt Q15438 1-398, looked up)
chain: MEEDDSYVPSDLTAEERQELENIRRRKQELLADIQRLKDEIAEVANEIENLGSTEERKNMQRNKQVAMGRKKFNMDPKKGIQFLIENDLLKNTCEDIAQFLYKGEGLNKTAIGDYLGERDEFNIQVLHAFVELHEFTDLNLVQALRQFLWSFRLPGEAQKIDRMMEAFAQRYCQCNNGVFQSTDTCYVLSFAIIMLNTSLHNPNVKDKPTVERFIAMNRGINDGGDLPEELLRNLYESIKNEPFKIPEDDGNDLTHTFFNPDREGWLLKLGGGRVKTWKRRWFILTDNCLYYFEYTTDKEPRGIIPLENLSIREVEDSKKPNCFELYIPDNKDQVIKACKTEADGRVVEGNHTVYRISAPTPEEKEEWIKCIKAAISRDPFYEMLAARKKKVSSTKRH
notes: mature; also called cytohesin-1; not shown: N-terminal histidine tag encoded by pET15b
Turning to B3, the “percent decrease” value in experiment [3] is ~75%.

B4: IRP-1 Sec7 domain (recombinant, soluble competitor) (other)
chain: KFNMDPKKGIQFLVENELLQNTPEEIARFLYKGEGLNKTAIGDYLGEREELNLAVLHAFVDLHEFTDLNLVQALRQFLWSFRLPGEAQKIDRMMEAFAQRYCLCNPGVFQSTDTCYVLSFAVIMLNTSLHNPNVRDKPGLERFVAMNRGINEGGDLPEELLRNLYDSIRNEPFKI
B4: the “percent decrease” value in experiment [3] was ~75%.
